The target in assay [1] is T1, human BCMA (on cells) (human, UniProt Q02223 1-184).
T1 construct: Full length, on transfected CHOK1 cells; also used as the target of the BCMA/CD3 bispecific Teclistamab on NCI-H929 and RPMI8226 cells; also called Human BCMA CHOK1
T1 sequence: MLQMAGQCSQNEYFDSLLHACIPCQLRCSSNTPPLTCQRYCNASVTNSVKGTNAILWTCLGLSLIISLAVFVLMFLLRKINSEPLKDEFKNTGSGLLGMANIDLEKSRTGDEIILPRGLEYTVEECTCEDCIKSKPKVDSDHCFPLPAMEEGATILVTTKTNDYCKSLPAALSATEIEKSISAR
The assay is described as follows: FACS, human BCMA-CHOK1 cells, anti-human IgG Fc PE secondary, MFI. (Flow cytometry measures light scatter and fluorescence of single cells or particles in a stream.)

Assay [2] deals with T1, human BCMA (on cells). The assay is described as above. The source holds these as a separate data set.
Assay [3] deals with T2, cynomolgus monkey BCMA (on cells) (cynomolgus monkey, UniProt Q02223 1-184 (human entry)).
T2 construct: also called cyno-BCMA; cyno BCMA CHOK1
T2 sequence (Q02223 other isoform, or with tags, fused parts or gaps): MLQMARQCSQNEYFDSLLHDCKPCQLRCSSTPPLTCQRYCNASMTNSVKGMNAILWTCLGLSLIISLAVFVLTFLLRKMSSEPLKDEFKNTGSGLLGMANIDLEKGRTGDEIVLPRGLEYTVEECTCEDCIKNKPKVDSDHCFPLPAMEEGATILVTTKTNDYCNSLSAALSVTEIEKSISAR
The assay is described as follows: FACS, cynomolgus monkey BCMA-CHOK1 cells, anti-human IgG Fc PE secondary, MFI.

The target of assay [4] is T1, human BCMA (on cells). The assay is described as follows: FACS on human BCMA-CHOK1 cells.
The target of assay [5] is T2, cynomolgus monkey BCMA (on cells). The assay is described as follows: FACS on cynomolgus BCMA-CHOK1 cells.

Three molecules from patent publication US20260234241A1 (SHANGHAI QILU PHARMACEUTICAL RESEARCH AND DEVELOPMENT CENTRE, published 2026) can be followed below.

Residue numbers refer to the chain shown, from its start. Like-named read-outs stand apart in the source and are kept apart here.

In general, EC50 (read off the curve) refers to the concentration that produces a half-maximal response. Usually EC50 stands for the concentration that produces a half-maximal response.

B1: 19CH-16 (antibody, IgG1, V domains shown)
VH: QGQMQQSGAELVKPGTSVKLSCKTSGFTFRSSYISWLQQKPGQSLEWIAWIYAGSGNTDYNQKFTGKAQLTVDTSSSTAYMQFSSLTTEDSAIYYCARHYDPPHYFDYWGQGTTLTVSS
VL: QIVLTQSPAIMSASPGEKVTMTCSASSGVSHMHWYQQKSGTSPKRWIYDTSKLTSGVPTRFSGTGSGTSYSLSISSMEAEDAATYYCQQWSRNPWTFGGGTKLEIK
notes: also called anti-BCMA chimeric antibody (19CH-16) derived from mouse hybridoma
With B1, in assay [1], the concentration giving a half-maximal response (EC50 (read off the curve)) was approximately 2 nM.

B2: 19CH-16H2L2 (antibody, IgG1, V domains shown)
VH: QVQLVQSGAEVKKPGASVKVSCKASGFTFRSSYISWVRQAPGQGLEWIAWIYAGSGNTDYNQKFTGRVTMTVDTSTSTVYMELSSLRSEDTAVYYCARHYDPPHYFDYWGQGTLVTVSS
VL: DIQLTQSPSSLSASVGDRVTITCSASSGVSHMHWYQQKPGKAPKRWIYDTSKLTSGVPSRFSGSGSGTDFTLTISSLQPEDFATYYCQQWSRNPWTFGQGTKVEIK
notes: also called humanized anti-BCMA antibody (19CH-16H2L2)
For the molecule B2, the “EC50 (read off the curve)” value in assay [2] was approximately 1 nM; in assay [3] it was approximately 3 nM.

B3: 19CH-16H2L2-QT (antibody, V domains shown)
VH: B2 VH with N57Q
VL: B2 VL
As for B3, the EC50 was determined as 7.76 nM in assay [4] and 9.05 nM in assay [5].
